According to patent US20160177397, “APTAMER FOR DETECTION OF ALPHA-METHYLACYL-COA RACEMASE AND DIAGNOSTIC KIT THEREOF” (NATIONAL TAIWAN UNIVERSITY, published 2016):

Legend:
[1] = molecular target: T1, Human serum albumin (HSA) (Homo sapiens, UniProt P02768 P02768:25-609); test: ELAA, 0.5 uM aptamer, 0.2 uM protein; also no significant cross-reactivity in FIG. 6 dose series; conditions: tags: Sigma-Aldrich; label: biotin; stem-loops, B-form-like CD
Protocol: (§1) Enzyme-linked aptamer assays with typical black opaque 96-well polystyrene microtiter plates that resembled ELISA assays were carried out for (1) assessment of the affinity and specificity of the selected AMACR binding aptamers and (2) proof-of-concept fluorescent AMACR detection using aptamers. For the first task, varied concentrations of aptamers were tested with a constant protein concentration ([…]); for the second task, varied concentrations of proteins were detected using a constant aptamer concentration (500 nM). Both used the following ELAA protocol unless otherwise noted. For protein coating, AMACR diluted in 0.05 M sodium carbonate buffer (pH9.6) was added to the wells of the plates (100 μL/well) and incubated at 4° C. overnight. After incubation, the wells were washed three times with 200 μL/well of selection buffer containing 0.05% Tween 20. For blocking, each AMACR-coated well was added with 200 μL of 3 wt % BSA in the selection buffer containing 0.05% Tween 20 and was then incubated at 37° C. for 2 h. Afterward, wells were washed as previously described. Before protein assays, biotin-labeled aptamer sequences were suspended in the selection buffer, heated to 95° C. for 5 min, and gradually cooled to 25° C. […] Finally, the fluorescent signal of each well was read by a fluorescent microplate reader (excitation at 435 nm and emission at 555 nm). […]

[2] = molecular target: Bovine serum albumin (BSA) (Bos taurus, UniProt P02769 P02769:25-607); test: ELAA, 0.5 uM aptamer, 0.2 uM protein; conditions: tags: Sigma-Aldrich; label: biotin; stem-loops, B-form-like CD
Protocol: (§2) Enzyme-linked aptamer assays with typical black opaque 96-well polystyrene microtiter plates that resembled ELISA assays were carried out for (1) assessment of the affinity and specificity of the selected AMACR binding aptamers and (2) proof-of-concept fluorescent AMACR detection using aptamers. For the first task, varied concentrations of aptamers were tested with a constant protein concentration ([…]); for the second task, varied concentrations of proteins were detected using a constant aptamer concentration (500 nM). Both used the following ELAA protocol unless otherwise noted. For protein coating, AMACR diluted in 0.05 M sodium carbonate buffer (pH9.6) was added to the wells of the plates (100 μL/well) and incubated at 4° C. overnight. After incubation, the wells were washed three times with 200 μL/well of selection buffer containing 0.05% Tween 20. For blocking, each AMACR-coated well was added with 200 μL of 3 wt % BSA in the selection buffer containing 0.05% Tween 20 and was then incubated at 37° C. for 2 h. Afterward, wells were washed as previously described. Before protein assays, biotin-labeled aptamer sequences were suspended in the selection buffer, heated to 95° C. for 5 min, and gradually cooled to 25° C. Then each protein-coated well was added with 100 μL of aptamer solution (in the selection buffer) and was incubated at room temperature for 1 h followed by the same wash procedure. After that, each well was added with two drops (ca. 100 μL) of an alkaline phosphatase-conjugated streptavidin (Strep-AP) solution (0.003 mg/mL) (Abcam) and incubated at room temperature for 30 min followed by the washes. For fluorescent signal development, each well was added with 100 μL of AttoPhos® AP fluorescent substrate solution (Promega) and incubated in dark for at least 15 min. Finally, the fluorescent signal of each well was read by a fluorescent microplate reader (excitation at 435 nm and emission at 555 nm).
(§3) FIG. 5A represented the results of the equilibrium AMACR total binding assays using the fluorescent ELAA format for AMC51, AMC55, and AMC56.

[3] = molecular target: T2, AMACR (alpha-methylacyl-CoA racemase, isoform CRA_c), homemade recombinant (Homo sapiens, UniProt Q9UHK6 Q9UHK6:1-382); test: apparent Kd; fluorescent ELAA, AMACR coated at 0.2 uM; 50 mM Tris/HCl, 100 mM NaCl, 4 mM KCl, 2.5 mM MgCl2, 1 mM CaCl2, pH 7.4, room temperature; conditions: label: biotin; stem-loops, B-form-like CD
T2 sequence: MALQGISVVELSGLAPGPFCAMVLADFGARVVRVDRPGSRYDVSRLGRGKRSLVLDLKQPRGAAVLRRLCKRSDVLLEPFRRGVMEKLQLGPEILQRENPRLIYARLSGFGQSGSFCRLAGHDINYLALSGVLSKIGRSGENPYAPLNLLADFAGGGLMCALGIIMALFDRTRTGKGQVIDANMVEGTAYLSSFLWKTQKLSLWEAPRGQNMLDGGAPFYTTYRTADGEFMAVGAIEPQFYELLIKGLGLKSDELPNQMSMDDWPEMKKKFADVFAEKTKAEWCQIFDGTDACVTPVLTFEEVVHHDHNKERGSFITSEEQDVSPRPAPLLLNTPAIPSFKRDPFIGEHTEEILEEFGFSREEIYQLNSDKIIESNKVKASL
Protocol: as §1

[4] = molecular target: T1, Human serum albumin (HSA); test: ELAA, 0.5 uM aptamer, 0.2 uM protein; conditions: tags: Sigma-Aldrich; label: biotin; stem-loops, B-form-like CD
Protocol: as §2, §3

[5] = molecular target: T2, AMACR (alpha-methylacyl-CoA racemase, …); test: apparent Kd; fluorescent ELAA, same buffer, room temperature; conditions: label: biotin; stem-loops, B-form-like CD
Protocol: as §1

Chain of Bovine serum albumin (BSA) (P02769 25-607, one chain of several): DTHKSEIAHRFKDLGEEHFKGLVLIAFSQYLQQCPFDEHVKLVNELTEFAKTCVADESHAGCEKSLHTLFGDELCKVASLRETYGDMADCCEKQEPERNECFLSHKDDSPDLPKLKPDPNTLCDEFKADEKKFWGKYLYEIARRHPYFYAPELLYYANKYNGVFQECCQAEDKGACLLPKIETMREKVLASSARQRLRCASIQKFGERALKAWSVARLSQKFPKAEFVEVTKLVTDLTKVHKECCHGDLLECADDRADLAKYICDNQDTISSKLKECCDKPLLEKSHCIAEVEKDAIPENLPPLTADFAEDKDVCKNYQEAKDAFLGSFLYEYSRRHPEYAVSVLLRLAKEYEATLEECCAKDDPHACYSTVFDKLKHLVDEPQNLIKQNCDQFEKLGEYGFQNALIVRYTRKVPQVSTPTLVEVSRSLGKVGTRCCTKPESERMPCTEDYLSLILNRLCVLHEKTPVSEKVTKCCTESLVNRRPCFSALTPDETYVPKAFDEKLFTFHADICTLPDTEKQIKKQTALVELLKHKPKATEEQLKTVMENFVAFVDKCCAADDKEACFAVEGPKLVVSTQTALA
T1 sequence (P02768 25-609, one chain of several): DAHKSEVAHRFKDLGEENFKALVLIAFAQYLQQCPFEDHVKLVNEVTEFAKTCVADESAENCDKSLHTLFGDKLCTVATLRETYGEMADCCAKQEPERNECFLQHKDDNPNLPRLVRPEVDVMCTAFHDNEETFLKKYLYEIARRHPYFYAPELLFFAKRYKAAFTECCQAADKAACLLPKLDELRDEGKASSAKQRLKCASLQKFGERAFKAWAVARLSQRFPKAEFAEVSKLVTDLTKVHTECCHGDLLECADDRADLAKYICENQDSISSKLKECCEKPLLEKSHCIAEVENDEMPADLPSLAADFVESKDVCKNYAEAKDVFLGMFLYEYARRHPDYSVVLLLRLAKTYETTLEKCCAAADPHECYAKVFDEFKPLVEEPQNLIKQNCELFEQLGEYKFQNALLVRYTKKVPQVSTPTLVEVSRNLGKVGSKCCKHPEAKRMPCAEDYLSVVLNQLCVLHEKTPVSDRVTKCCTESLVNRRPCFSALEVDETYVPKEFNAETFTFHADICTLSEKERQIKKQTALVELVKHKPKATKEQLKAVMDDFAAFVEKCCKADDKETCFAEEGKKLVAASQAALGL

B1: AMC51 (ssDNA)
DNA: CCCTACGGCGCTAACCCATGCTACGAATTCGTTGTTAAACAATAGGCCACCGTGCTACAA
[1]
  binding result: no binding
[2]
  binding result: no binding
[3]
  Kd: 0.049 µM

B2: AMC56 (ssDNA)
DNA: CCCTACGGCGCTAACCCAGCTACTCTAGAACCCATTATATTTTGGGCCACCGTGCTACAA
[4]
  binding result: no binding
[2]
  binding result: no binding
[5]
  Kd: 0.065 µM

B3: AMC55 (ssDNA)
DNA: CCCTACGGCGCTAACCAGTATGTTCCGGATTGGAGAGCTCCTGTTGCCACCGTGCTACAA
[4]
  binding result: no binding
[2]
  binding result: no binding
[5]
  Kd: 0.139 µM
